In publication PMC2756588:

Columns and labels:
Test in all cases: SPOT array
[1] = biological target: Myo3, P36006; conditions: median of control spots 468
[2] = biological target: T1, Hse1, P38753; conditions: median of control spots 1727
T1 sequence (P38753 208-285, looked up): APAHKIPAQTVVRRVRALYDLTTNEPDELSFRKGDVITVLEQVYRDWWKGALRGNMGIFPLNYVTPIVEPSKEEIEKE

[3] = biological target: Bem1-1, P29366; conditions: median of control spots 4282
[4] = biological target: T2, Lsb3, P43603; conditions: median of control spots 406
T2 sequence (P43603 385-451, looked up): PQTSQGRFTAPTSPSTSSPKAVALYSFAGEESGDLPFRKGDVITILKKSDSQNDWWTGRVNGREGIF

[5] = biological target: T3, Nbp2, Q12163; conditions: median of control spots 357
T3 sequence (Q12163 103-180, looked up): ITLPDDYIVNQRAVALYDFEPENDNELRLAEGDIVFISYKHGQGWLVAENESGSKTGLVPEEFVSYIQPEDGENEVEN

[6] = biological target: T4, Bzz1-1, P38822; conditions: median of control spots 4446
T4 sequence (P38822 478-572, looked up): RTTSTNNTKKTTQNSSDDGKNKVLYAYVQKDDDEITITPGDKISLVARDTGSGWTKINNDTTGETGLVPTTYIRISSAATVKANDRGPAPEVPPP

[7] = biological target: T5, Pin3, Q06449; conditions: median of control spots 2171
T5 sequence (Q06449 53-122, looked up): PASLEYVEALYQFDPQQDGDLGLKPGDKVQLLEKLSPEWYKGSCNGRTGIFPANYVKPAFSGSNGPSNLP

[8] = biological target: T6, Bbc1, P47068; conditions: median of control spots 796
T6 sequence (P47068 1-78, looked up): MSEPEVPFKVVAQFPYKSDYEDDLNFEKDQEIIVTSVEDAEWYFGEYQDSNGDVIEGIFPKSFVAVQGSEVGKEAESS

[9] = biological target: T7, Cyk3, Q07533; conditions: median of control spots 1451
T7 sequence (Q07533 1-83, looked up): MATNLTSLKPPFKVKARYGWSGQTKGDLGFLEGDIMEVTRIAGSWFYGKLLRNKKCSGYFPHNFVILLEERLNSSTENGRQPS

[10] = biological target: T8, Cdc25, P04821; conditions: median of control spots 969
T8 sequence (P04821 50-136, looked up): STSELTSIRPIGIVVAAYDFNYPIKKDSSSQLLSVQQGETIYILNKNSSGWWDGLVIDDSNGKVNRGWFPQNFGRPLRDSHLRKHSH

[11] = biological target: T9, Hof1, Q05080; conditions: median of control spots 4086
T9 sequence (Q05080 590-669, looked up): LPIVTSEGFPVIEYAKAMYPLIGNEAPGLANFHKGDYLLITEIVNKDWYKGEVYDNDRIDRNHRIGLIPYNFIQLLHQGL

[12] = biological target: Rvs167, P39743; conditions: median of control spots 2707
[13] = biological target: T10, Sla1-3, P32790; conditions: median of control spots 5475
T10 sequence (P32790 344-424, looked up): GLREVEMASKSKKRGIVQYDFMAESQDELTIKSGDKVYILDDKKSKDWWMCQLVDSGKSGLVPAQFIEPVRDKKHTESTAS

[14] = biological target: T11, Bzz1-2, P38822; conditions: median of control spots 4538
T11 sequence (P38822 568-633, looked up): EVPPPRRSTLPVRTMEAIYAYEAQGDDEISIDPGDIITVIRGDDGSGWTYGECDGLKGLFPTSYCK

[15] = biological target: T12, Lsb4, P32793; conditions: median of control spots 397
T12 sequence (P32793 402-468, looked up): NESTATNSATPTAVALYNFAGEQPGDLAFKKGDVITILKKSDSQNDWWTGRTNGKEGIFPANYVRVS

[16] = biological target: T13, Bud14, P27637; conditions: median of control spots 956
T13 sequence (P27637 247-328, looked up): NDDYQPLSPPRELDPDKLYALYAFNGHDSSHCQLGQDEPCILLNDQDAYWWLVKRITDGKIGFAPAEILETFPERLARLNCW

[17] = biological target: T14, Abp1, P15891; conditions: median of control spots 935
T14 sequence (P15891 535-592, looked up): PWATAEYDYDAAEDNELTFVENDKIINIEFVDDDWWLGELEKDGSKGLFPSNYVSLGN

[18] = biological target: T15, Sla1-2, P32790; conditions: median of control spots 712
T15 sequence (P32790 60-140, looked up): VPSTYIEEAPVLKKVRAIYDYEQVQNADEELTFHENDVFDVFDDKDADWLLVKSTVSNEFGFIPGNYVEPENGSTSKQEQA

[19] = biological target: T16, Pex13, P80667; conditions: median of control spots 1341
T16 sequence (P80667 295-386, looked up): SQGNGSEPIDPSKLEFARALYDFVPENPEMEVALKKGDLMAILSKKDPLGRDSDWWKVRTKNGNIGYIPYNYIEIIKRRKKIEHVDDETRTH

[20] = biological target: T17, Boi2, P39969; conditions: median of control spots 1161
T17 sequence (P39969 32-116, looked up): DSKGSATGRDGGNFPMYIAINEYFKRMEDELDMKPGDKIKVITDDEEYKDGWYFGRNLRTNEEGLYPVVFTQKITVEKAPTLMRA

[21] = biological target: T18, Boi1, P38041; conditions: median of control spots 1162
T18 sequence (P38041 1-86, looked up): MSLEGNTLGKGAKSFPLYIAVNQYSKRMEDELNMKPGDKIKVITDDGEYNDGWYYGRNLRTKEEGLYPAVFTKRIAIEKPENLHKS

[22] = biological target: T19, Lsb1, P53281; conditions: median of control spots 388
T19 sequence (P53281 45-122, looked up): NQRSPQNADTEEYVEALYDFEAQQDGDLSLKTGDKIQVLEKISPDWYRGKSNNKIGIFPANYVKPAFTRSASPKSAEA

[23] = biological target: GST; conditions: median of control spots 978
[24] = biological target: Bem1-2, P29366; conditions: median of control spots 4347
[25] = biological target: T20, Myo5, Q04439; conditions: median of control spots 471
T20 sequence (Q04439 1072-1160, looked up): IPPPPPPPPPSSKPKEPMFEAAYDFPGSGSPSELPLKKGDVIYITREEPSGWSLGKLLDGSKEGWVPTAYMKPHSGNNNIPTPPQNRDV

[26] = biological target: Sho1, P40073; conditions: median of control spots 1148
[27] = biological target: T21, Fus1, P11710; conditions: median of control spots 1200
T21 sequence (P11710 432-512, looked up): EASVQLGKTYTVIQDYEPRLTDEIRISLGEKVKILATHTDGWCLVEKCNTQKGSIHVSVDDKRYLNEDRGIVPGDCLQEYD

Chain of Bem1-2, P29366 (P29366 139-227): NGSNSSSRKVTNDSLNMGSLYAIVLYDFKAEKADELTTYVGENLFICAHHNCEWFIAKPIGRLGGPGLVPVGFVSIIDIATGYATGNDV
Chain of Bem1-1, P29366 (P29366 55-141): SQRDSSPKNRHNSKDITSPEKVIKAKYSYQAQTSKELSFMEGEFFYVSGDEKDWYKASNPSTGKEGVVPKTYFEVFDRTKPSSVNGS
Chain of Sho1, P40073 (P40073 287-367): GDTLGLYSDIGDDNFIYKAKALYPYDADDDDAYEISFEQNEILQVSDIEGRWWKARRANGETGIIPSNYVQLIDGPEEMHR
Chain of Rvs167, P39743 (P39743 419-482): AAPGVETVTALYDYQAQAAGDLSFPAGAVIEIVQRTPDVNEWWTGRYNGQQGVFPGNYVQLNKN

Binder | SPOT intensity [1] | SPOT intensity [2] | SPOT intensity [3] | SPOT intensity [4] | SPOT intensity [5] | SPOT intensity [6] | SPOT intensity [7] | SPOT intensity [8] | SPOT intensity [9] | SPOT intensity [10] | SPOT intensity [11] | SPOT intensity [12] | SPOT intensity [13] | SPOT intensity [14] | SPOT intensity [15] | SPOT intensity [16] | SPOT intensity [17] | SPOT intensity [18] | SPOT intensity [19] | SPOT intensity [20] | other results
NSMRPPLLIPAATTK | 40 | 5 | 5 | 25 | 9 | 0 | 40 | 0 | 0 | 37 | 2 | 0 | 0 | 0 | 87 | 13 | 87 | 6 | 47 | 0 | SPOT intensity [21]: 0; SPOT intensity [22]: 387; SPOT intensity [23]: 1; SPOT intensity [24]: 6; SPOT intensity [25]: 65; SPOT intensity [26]: 39; SPOT intensity [27]: 0
VFQFQMPTTPISTKM | 32 | 0 | 0 | 14 | 3 | 1 | 125 | 0 | 0 | 0 | 0 | 0 | 0 | 0 | 39 | 0 | 32 | 7 | 219 | 0 | SPOT intensity [21]: 0; SPOT intensity [22]: 1; SPOT intensity [23]: 0; SPOT intensity [24]: 5; SPOT intensity [25]: 74; SPOT intensity [26]: 46; SPOT intensity [27]: 0
QTMRQAPKRPDADVA | 44 | 1 | 1 | 60 | 989 | 0 | 61 | 90 | 0 | 0 | 0 | 10 | 42 | 28 | 115 | 0 | 81 | 19 | 73 | 0 | SPOT intensity [21]: 0; SPOT intensity [22]: 211; SPOT intensity [23]: 1; SPOT intensity [24]: 65; SPOT intensity [25]: 103; SPOT intensity [26]: 21; SPOT intensity [27]: 0
PSTMDFPKLPSFQNS | 51 | 0 | 0 | 21 | 57 | 0 | 54 | 0 | 2 | 0 | 307 | 2 | 0 | 0 | 67 | 1 | 99 | 7 | 35 | 0 | SPOT intensity [21]: 0; SPOT intensity [22]: 44; SPOT intensity [23]: 0; SPOT intensity [24]: 8; SPOT intensity [25]: 77; SPOT intensity [26]: 25; SPOT intensity [27]: 0
